# Target: T1, ERK3, amino acids 1-316, bait fused to the Gal4 DNA binding domain (Saccharomyces cerevisiae, UniProt P04386 1-147; Q16659 1-316)
# T1 construct: range 1-147;range 1-316; Bait cDNA made by PCR from brain cDNA; also called ERK3 protein kinase
# Experiment: yeast two-hybrid
# Text: The new construct was selected directly in the yeast J693 for its ability to drive tryptophane synthesis (genotype of this strain: Mat α, ade2, his3, leu2, trp1, URA3::GAL1-lacZ LYS2::GAL1-HIS3 gal4del gal80del cyhR2). In these yeast cells, the bait is produced as a C-terminal fusion protein with the DNA binding domain of the transcription factor Gal4 (amino acids 1 to 147). A total human brain (person) cDNA library cloned into the yeast expression vector pACT2 was purchased from Clontech (human brain […] cDNA, cat. # HL4004AH), transformed into the yeast strain J692 (genotype of this strain: Mat a, ade2, his3, leu2, trp1, URA3::GAL1-lacZ LYS2::GAL1-HIS3 gal4del ga80del cyhR2), and selected for the ability to drive leucine synthesis. In these yeast cells, each cDNA is expressed as a fusion protein with the transcription activation domain of the transcription factor Gal4 (amino acids 768 to 881) and a 9 amino acid hemagglutinin epitope tag. J693 cells (Mat α type) expressing the bait were then mated with J692 cells ([…]) expressing proteins from the brain library. The resulting diploid yeast cells expressing proteins interacting with the bait protein were selected for the ability to synthesize tryptophan, leucine, histidine, and β-galactosidase. […]
binder,measurement,value
"CDK9, amino acids 160-372, prey clone fused to the Gal4 activation domain (other, Saccharomyces cerevisiae;human, UniProt P04386 768-881, looked up, not shown: small tags and cut ends, Clone from the human brain cDNA library; also called PITARLE) ANFNQSGNIADSSLSFTFTNSSNGPNLITTQTNSQALSQPIASSNVHDNFMNNEITASKIDDGNNSKPLSPGWTDQTAYNAFGITTGMFNTTTMDDVYNYLFDDEDTPPNPKKEDGVLKLADFGLARAFSLAKNSQPNRYTNRVVTLWYRPPELLLGERDYGPPIDLWGAGCIMAEMWTRSPIMQGNTEQHQLALISQLCGSITPEVWPNVDNYELYEKLELVKGQKRKVKDRLKAYVRDPYALDLIDKLLVLDPAQRIDSDDALNHDFFWSDPMPSDLKGMLSTHLTSMFEYLAPPRRKGSQITQQSTNQSRNPATTNQTEFERVF",binding result,binds

# — patent US20020104105A1 (MYRIAD GENETICS, published 2002)
